Results on six substances are retold here after PMC3325965, “Structural Basis of the Chromodomain of Cbx3 Bound to Methylated Peptides from Histone H1 and G9a” (PLoS ONE, 2012).

human Cbx3 chromodomain (residues 29–86) (human), sequence (Q13185 29-86): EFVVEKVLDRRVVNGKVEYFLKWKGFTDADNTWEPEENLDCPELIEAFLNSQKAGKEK
Cbx3 chromodomain, sequence (Q13185 30-88): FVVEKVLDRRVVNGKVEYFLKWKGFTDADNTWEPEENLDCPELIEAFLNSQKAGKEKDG

The target of one test is Histone H3K9me3 peptide (Homo sapiens) (UniProt P68431).
Experiment: not given
The settings on record: cited from earlier work.
As to Cbx3 chromodomain (from UniProt Q13185), the Kd is 15 µM.

The next test concerns the target human Cbx3 chromodomain (residues 29–86) (human) (UniProt Q13185). In words: ITC; peptide solution (1–2 mM) injected into the cell with Cbx3 chromodomain (40–100 mM [sic]) in 20 mM Tris–HCl, pH 7.5, 150 mM NaCl; one-site binding model.
Conditions: not given
A general note: Isothermal titration calorimetry measures the heat released or taken up as one component is titrated into another.
As for “histone H1.4(18–29) peptide, K26 trimethylated”, the equilibrium dissociation constant (Kd) was 21 µM. As for “G9a(179–190) peptide, K185 monomethylated”, the Kd is 28 µM. “G9a(179–190) peptide, K185 trimethylated” yielded a dissociation constant Kd of 14 µM.

As to “histone H1.4(18–29) peptide, K26 dimethylated”, the equilibrium dissociation constant (Kd) came to 52 µM. On the same count and under the same terms, the result for G9a(179–190) peptide, K185 dimethylated reads 9 µM.

As a reminder, the Kd is the constant that tells how readily two partners part at equilibrium.
